Laboratory results from patent US20250270315A1 (ELPISCIENCE SUZHOU BIOPHARMA, published 2025).

Tests used:
[1] = target: T1, human SIRPβ stably expressed on CHOK1 cells (human, UniProt O00241 30-398); assay: FACS, CHOK1-hSIRPβ cells (columns c6 and c7 read as swapped)
T1 construct: whole, on cells; also called CHOK1-human SIRPB; CHOK1-hSIRPβ
Source text: All the humanized antibodies as tested were confirmed to retain the similar activity as the parental antibody of 025c to bind to SIRP family members.

[2] = target: T2, full length human SIRPα v1 stably expressed on CHOK1 or 293F cells (human, UniProt P78324 31-504); assay: FACS, CHOK1-hSIRPα v1 cells
T2 construct: whole, on cells; also called CHOK1-human SIRPα v1; CHOK1-hSIRPα v1
T2 sequence (P78324 31-504): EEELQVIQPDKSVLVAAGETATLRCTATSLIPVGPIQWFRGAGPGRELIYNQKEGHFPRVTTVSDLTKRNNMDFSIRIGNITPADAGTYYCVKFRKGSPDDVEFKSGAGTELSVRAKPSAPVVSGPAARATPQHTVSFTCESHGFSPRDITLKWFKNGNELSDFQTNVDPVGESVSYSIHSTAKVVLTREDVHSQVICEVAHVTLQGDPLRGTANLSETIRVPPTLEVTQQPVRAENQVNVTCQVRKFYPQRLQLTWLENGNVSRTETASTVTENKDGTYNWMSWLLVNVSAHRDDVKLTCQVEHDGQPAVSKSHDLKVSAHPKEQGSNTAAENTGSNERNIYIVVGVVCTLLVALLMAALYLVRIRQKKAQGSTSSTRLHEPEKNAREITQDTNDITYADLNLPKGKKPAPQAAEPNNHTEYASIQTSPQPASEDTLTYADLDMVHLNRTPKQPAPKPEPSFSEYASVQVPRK

T1 sequence (O00241 30-398): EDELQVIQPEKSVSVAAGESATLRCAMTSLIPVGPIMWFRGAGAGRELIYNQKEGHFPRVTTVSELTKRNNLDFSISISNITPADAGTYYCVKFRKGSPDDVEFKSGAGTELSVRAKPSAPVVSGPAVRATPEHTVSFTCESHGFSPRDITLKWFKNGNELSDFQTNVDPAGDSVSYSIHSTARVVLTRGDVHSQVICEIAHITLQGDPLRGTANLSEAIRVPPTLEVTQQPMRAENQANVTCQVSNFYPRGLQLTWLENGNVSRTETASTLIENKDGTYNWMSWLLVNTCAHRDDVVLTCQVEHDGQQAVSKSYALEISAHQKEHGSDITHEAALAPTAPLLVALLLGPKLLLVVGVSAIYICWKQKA

B1: 025c (antibody, V domains shown)
VH: EVQLQQSGAELVKPGASVKLSCTASGFNIKDYYMHWVKQRTEQGLEWIGRIDPEDGETKYAPKFQGKATITADTSSNTAYLQLSSLTSEDTAVYYCDRGLAYWGQGTLVTVSA
VL: QIVLTQSPAIMSASPGEKVTLTCSASSSVSSSYLYWYQQKPGSSPKLWIYSTSNLASGVPARFSGSGSGTSYSLTISSMEAEDAASYFCHQWSSYPYTFGGGTKLEIK
notes: also called chimeric antibody 025c; parental antibody of 025c
- EC50 [1]: 0.65 nM
- TOP MFI [1]: 72300 MFI
- EC50 [2]: 1.49 nM
- TOP MFI [2]: 77600 MFI
